T1: Recombinant murine full-length adiponectin (murine, UniProt Q60994 18-247)
T1 construct: also called fADPN; source: bought: Biovender Laboratory Medicine, Inc
T1 sequence (looked up): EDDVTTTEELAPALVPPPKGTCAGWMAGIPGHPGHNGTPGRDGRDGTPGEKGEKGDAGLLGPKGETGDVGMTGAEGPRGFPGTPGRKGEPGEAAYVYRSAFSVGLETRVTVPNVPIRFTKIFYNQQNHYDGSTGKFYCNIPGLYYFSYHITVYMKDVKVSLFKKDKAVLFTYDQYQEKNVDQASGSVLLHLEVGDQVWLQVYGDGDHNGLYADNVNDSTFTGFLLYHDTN


How the values were obtained:
[1] = molecular target: Secreted protein, acidic and rich in cysteine (SPARC) (UniProt P09486); test: SPR; BIAcore X; SPARC immobilised on CM5 chip (3574 RU); growth factors as analytes in HBS-EP (10 mM HEPES, 150 mM NaCl, 0.005% Surfactant P20, pH 7.4), 37 °C, 20 µL/min, 105 s association, 120 s dissociation
Secreted protein, acidic and rich in cysteine (SPARC), sequence (P09486 18-303): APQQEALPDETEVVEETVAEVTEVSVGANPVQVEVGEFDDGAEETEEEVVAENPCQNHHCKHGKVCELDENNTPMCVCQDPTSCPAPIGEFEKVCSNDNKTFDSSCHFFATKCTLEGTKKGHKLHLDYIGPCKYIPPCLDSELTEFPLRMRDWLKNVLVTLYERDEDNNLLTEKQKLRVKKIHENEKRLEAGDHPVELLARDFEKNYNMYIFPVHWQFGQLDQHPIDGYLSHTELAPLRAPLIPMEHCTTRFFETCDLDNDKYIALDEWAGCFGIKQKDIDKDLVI

[2] = molecular target: Recombinant murine globular adiponectin (murine); test: SPR; BIAcore X; globular adiponectin immobilised on CM5 chip (12707 RU); growth factors as analytes in HBS-EP pH 7.4, 37 °C, 20 µL/min, 105 s association, 120 s dissociation
[3] = molecular target: T1, Recombinant murine full-length …; test: SPR; BIAcore X; full length adiponectin immobilised on CM5 chip (2025 RU); growth factors as analytes in HBS-EP pH 7.4, 37 °C, 20 µL/min, 105 s association, 120 s dissociation; settings: both partners purified

Recombinant human transforming growth factor β1 (TGFβ1), sequence (P01137 279-390): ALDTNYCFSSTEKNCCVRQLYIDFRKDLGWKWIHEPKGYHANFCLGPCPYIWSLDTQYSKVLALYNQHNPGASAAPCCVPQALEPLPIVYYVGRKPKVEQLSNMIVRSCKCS
Recombinant human basic fibroblast growth factor (FGF2), sequence (P09038 143-288): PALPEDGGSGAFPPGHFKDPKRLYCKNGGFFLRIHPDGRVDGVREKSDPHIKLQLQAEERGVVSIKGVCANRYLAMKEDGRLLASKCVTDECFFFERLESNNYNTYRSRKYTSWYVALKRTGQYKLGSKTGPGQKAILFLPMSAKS

| Molecule | Kd [1] [nM] | koff [1] [s⁻¹] | kon [1] [M⁻¹ s⁻¹] | Kd [2] [nM] | koff [2] [s⁻¹] | kon [2] [M⁻¹ s⁻¹] | Kd [3] [nM] | koff [3] [s⁻¹] | kon [3] [M⁻¹ s⁻¹] |
| --- | --- | --- | --- | --- | --- | --- | --- | --- | --- |
| Recombinant human basic fibroblast growth factor (FGF2) (from UniProt P09038 143-288) (ligand) | 14400 | 0.00195 | 135 | – | – | – | – | – | – |
| Recombinant human transforming growth factor β1 (TGFβ1) (from UniProt P01137 279-390) (ligand) | 24300 | 0.0192 | 790 | – | – | – | – | – | – |
| Recombinant human vascular endothelial growth factor VEGF-165 (ligand) | 54.4 | 0.00413 | 75800 | – | – | – | – | – | – |
| Recombinant human platelet-derived growth factor-BB (PDGF-BB) (ligand, UniProt P01127 82-190, looked up, PDGF B chain, human, recombinant; The two copies follow from the printed name BB; source: bought: Wako Pure Chemical) SLGSLTIAEPAMIAECKTRTEVFEISRRLIDRTNANFLVWPPCVEVQRCSGCCNNRNVQCRPTQVQLRPVQVRKIEIVRKKPIFKKATVTLEDHLACKCETVAAARPVT | 24.3 | 0.000903 | 37100 | 70.4 | 0.00738 | 105000 | 24.5 | 2.82e-05 | 1150 |
| Nerve growth factor β (NGFβ) from mouse submaxillary glands (ligand, UniProt P01139 122-241, looked up, beta-nerve growth factor, mouse, the beta chain from submaxillary glands; The same protein was also tested after boiling (denatured), as a control; source: from mouse submaxillary glands; bought: Alomone Labs) SSTHPVFHMGEFSVCDSVSVWVGDKTTATDIKGKEVTVLAEVNINNSVFRQYFFETKCRASNPVESGCRGIDSKHWNSYCTTTHTFVKALTTDEKQAAWRFIRIDTACVCVLSRKATRRG | 59.4 | 0.011 | 186000 | 1260 | 0.0145 | 11500 | 103 | 0.00597 | 57600 |
